In this experiment the target is soluble HLA-DM, wild type (DM WT) (human) (UniProt P28067). The experiment is described as follows: SPR. For orientation: In SPR one partner is held on a chip, and binding of the other changes the refractive index at the surface.

“DR1 (DRα V65C) with disulfide-linked HA6 P2-P11 peptide (from UniProt P01903) (peptide-MHC)” gave a Kd of 1000 nM and a percent of maximal DM binding at pH 7.0 of 40%.

Usually Kd stands for the equilibrium constant for the complex coming apart. Low readings indicate tighter binding, high ones weaker binding.

The values are drawn from paper PMC3018327 (Nature immunology, 2010).
